Test results reported in US20250027068.

Molecular target: pooled human IgG (human IgG1,2,3 and 4)

B1: PRT-473 (protein)
chain: MVTSVWTKGVTPPTDFRKIVDGNIAYYHAPYKAGQGWYDITKTFNGKDDLLCGAATAGNMLHWWFDQNKEQIENYLKKHPEKQKINFNGEQMFDVKEAIDTKDSQLDSKLFEYFKEKAFPYLSTKHLGVFPDHVIDMFINGYRLSLTNHGPTPVKRGSKDPRGGIFDAVFTRGDQSKLLTNRHDFKEKTLKEISDLIKQELTEGKALGISHTYANVRINHVINLWGADFDAEGNLEAIYVTDSDSNASIGMKKYFVGVNSNGKVAISAKEIEEDNIGAQVLGLFTLSTGQDIWNQTNLEHHHHHH
Enzyme Activity Endpoint Assay (purified): Fab′2: 1340 ng/µL
Enzyme Activity Endpoint Assay (purified): Fc: 384 ng/µL
Enzyme Activity Endpoint Assay (purified): IgG: 59 ng/µL
Enzyme Activity Endpoint Assay (purified): scIgG: 0 ng/µL

B2: PRT-484 (protein)
chain: MVTSVWTKGVTPPTDFRKIVDGNIAYYHAPYKAGQGWYDITKAFDGGDNLLCGAATAGNMLHWWFDQNKDQIEAYLKEHPEKQKIIFNNQELFDLKAAIDTKDDQTNSELFNYFKEKAFPYLSTKHLGVFPDHVLDMFINGYRLSLTNHGPTPVKEGSKDKRGGIFDAVFTRGVQSKLLTSRHDLKNKTLKEISDLIKQELTEGKALALSHTYANVRINHVINLWGADFDSNGNLEAIYVTDSDTNASIGMKKYFVGVNSAGKVAISAKEIEDDNIGAQVLGLFTLSTGQDIWNQTNLEHHHHHH
Enzyme Activity Endpoint Assay (purified): Fab′2: 143 ng/µL
Enzyme Activity Endpoint Assay (purified): Fc: 277 ng/µL
Enzyme Activity Endpoint Assay (purified): IgG: 173 ng/µL
Enzyme Activity Endpoint Assay (purified): scIgG: 973 ng/µL

B3: PRT-472 (protein)
chain: MVTSVWTKGVTPPTDFIYGEDVLHAPYKAGQGWYDITKTFNGKDDLLCGAATAGNMLHWWFDQNKEQIENYLKKHPEKQKINFNGEQMFDVKEAIDTKDSQLDSKLFEYFKEKAFPYLSTKHLGVFPDHVIDMFINGYRLSLTNHGPTPVKRGSKDPRGGIFDAVFTRGDQSKLLTNRHDLKNKTLKEISDLIKQELTEGKALGISHTYANVRINHVINLWGADFDAEGNLEAIYVTDSDSNASIGMKKYFVGVNSNGKVAISAKEIEEDNIGAQVLGLFTLSTGQDIWNQTNLEHHHHHH
Enzyme Activity Endpoint Assay (purified): Fab′2: 1130 ng/µL
Enzyme Activity Endpoint Assay (purified): Fc: 386 ng/µL
Enzyme Activity Endpoint Assay (purified): IgG: 0 ng/µL
Enzyme Activity Endpoint Assay (purified): scIgG: 0 ng/µL

B4: PRT-447 (protein)
chain: MVTSVWTKGVTPPTDFIKGEDVFHAPYKAGQGWYDITKAFDGGDDLLCGAATAGNMLHWWFDQNKDQIEAYLKEHPEKQKINFNGEQMFDVKEAIDTKDDQTNSELFNYFKEKAFPYLSTKHLGVFPDHVLDMFINGYRLSLTNHGPTPVKEGSKDPRGGIFDAVFTRGDQSKLLTSRHDFKEKTLKEISDLIKQELTEGKALALSHTYANVRINHVINLWGADFDSNGNLEAIYVTDSDSNASIGMKKYFVGVNSAGKVAISAKEIEDDNIGAQVLGLFTLSTGQDIWNQTNLEHHHHHH
Enzyme Activity Endpoint Assay (purified): Fab′2: 376 ng/µL
Enzyme Activity Endpoint Assay (purified): Fc: 255 ng/µL
Enzyme Activity Endpoint Assay (purified): IgG: 445 ng/µL
Enzyme Activity Endpoint Assay (purified): scIgG: 0 ng/µL

B5: PRT-459 (protein)
chain: MVTSVWTKGVTPPTDFIKGEDVFHAPYKAGQGWYDITKAFDGGDDLLCGAATAGNMLHWWFDQNKDQIERYLKEHPEKQKINFNGEQMFDVKEAIDTKDSQTNSELFNYFKEKAFPYLSTKHLGVFPDHVLDMFINGYRLSLTNHGPTPVKEGSKDPRGGIFDAVFTRGDQSKLLTSRHDFKEKTLKEISDLIKQELTEGKALGLSHTYANVRINHVINLWGADFDSEGNLKAIYVTDSDSNASIGMKKYFVGVNSAGKVAISAKEIKEDNIGAQVLGLFTLSTGQDIWNQTNLEHHHHHH
Enzyme Activity Endpoint Assay (purified): Fab′2: 137 ng/µL
Enzyme Activity Endpoint Assay (purified): Fc: 193 ng/µL
Enzyme Activity Endpoint Assay (purified): IgG: 373 ng/µL
Enzyme Activity Endpoint Assay (purified): scIgG: 415 ng/µL
